According to US20110086770A1 (ANAPHORE, published 2011):
Positions count from the first letter of the chain named. Numbers in names are those of the source.

T1: recombinant human IL-23R/Fc chimera (R&D Systems) (human, UniProt Q5VWK5 24-353)
T1 construct: bought; also called human IL-23R/Fc fusion protein; rhIL23RFc
T1 sequence (looked up): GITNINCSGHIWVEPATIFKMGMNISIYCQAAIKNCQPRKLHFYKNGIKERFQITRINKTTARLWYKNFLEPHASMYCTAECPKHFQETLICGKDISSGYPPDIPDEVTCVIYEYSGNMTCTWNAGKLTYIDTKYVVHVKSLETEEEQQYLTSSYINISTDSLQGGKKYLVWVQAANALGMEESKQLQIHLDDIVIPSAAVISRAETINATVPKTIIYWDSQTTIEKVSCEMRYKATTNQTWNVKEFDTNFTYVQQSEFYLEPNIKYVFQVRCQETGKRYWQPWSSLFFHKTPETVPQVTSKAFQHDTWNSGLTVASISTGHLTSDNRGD

B1: 105-08-1A3 ATRIMER (designed binder)
chain: EPPTQKPKKIVNAKKDVVNTKMFEELKSRLDTLAQEVALLKEQQALQTVCLKGTKVHMKCFLAFTQTKTFHEASEDCISRGGTLSTPQTGSENDALYEYLRQSVGNEAEIWLGLNGSPRTDTWVDMTGARIAYKNWETEITAQPDGGWGVFGENCAVLSGAANGKWFDKRCRDQLPYICQFGIV
notes: not shown: C-terminal tag: Myc/His6 (pANA4) or HA-StrepII (pANA10); A Ser left at the ompA junction may also sit at the N-terminus
B2: 101-113-6C102 ATRIMER (designed binder)
chain: EPPTQKPKKIVNAKKDVVNTKMFEELKSRLDTLAQEVALLKEQQALQTVCLKGTKVHMKCFLAFTQTKTFHEASEDCISRGGTLSTPQTGSENDALYEYLRQSVGNEAEIWLGLNGSNVTQTWVDMTGARIAYKNWEPPPPHHPQGGFGVFGENCAVLSGAANGKWFDKRCRDQLPYICQFGIV
modifications: ATRIMER is a homotrimer; one protomer is given.
notes: not shown: C-terminal purification tag: Myc/His6 (pANA4) or HA-StrepII (pANA10)
B3: 101-54-4B10 ATRIMER (designed binder)
chain: B2 chain with N118A, V119L, Q121N, P138R, P141L, H142Y, H143Q, Q145G, V150Y
modifications: ATRIMER is a homotrimer; one protomer is given.
notes: as for B2
B4: 105-20-2A3 ATRIMER (designed binder)
chain: B1 chain with R119I, D121N, W148F, V150Y
notes: as for B1
B5: 105-20-2F12 ATRIMER (designed binder)
chain: B1 chain with P118K, R119L, W148F, V150Y
notes: not shown: C-terminal tag: His/Myc (pANA4) or HA-StrepII (pANA10)
B6: 101-51-1A9 ATRIMER (designed binder)
chain: B2 chain with N118A, V119L, Q121N, P139A, P140R, P141Q, H142P, H143Q, Q145G, V150Y
modifications: ATRIMER is a homotrimer; one protomer is given.
notes: as for B2
B7: 101-80-5H3 ATRIMER (designed binder)
chain: EPPTQKPKKIVNAKKDVVNTKMFEELKSRLDTLAQEVALLKEQQALQTVCLKGTKVHMKCFLAFTQTKTFHEASEDCISRGGTLSTPQTGSENDALYEYLRQSVGNEAEIWLGLNGSALTNTWVDMTGARIAYKNWEPPAPYHPMAAGVFGENCAVLSGAANGKWFDKRCRDQLPYICQFGIV
modifications: ATRIMER is a homotrimer; one protomer is given.
notes: one residue deleted from Loop 4 (-GVFG); the GlyGly to AlaAla change; not shown: C-terminal purification tag: Myc/His6 (pANA4) or HA-StrepII (pANA10)
B8: C3C ATRIMER (designed binder)
chain: B1 chain with G116A, S117N, P118R, T120R, D121T, T122M, W148M, F151W
modifications: Forms a homotrimer through the tetranectin coiled coil; one protomer is given.
notes: also called 001-89.C3C
B9: A4A ATRIMER (designed binder)
chain: EPPTQKPKKIVNAKKDVVNTKMFEELKSRLDTLAQEVALLKEQQALQTVCLKGTKVHMKCFLAFTQTKTFHEASEDCISRGGTLSTPQTGSENDALYEYLRQSVGNEAEIWLGLNWTLAKNLWVDMTGARIAYKNWETEITAQPDGGLFGRGENCAVLSGAANGKWFDKRCRDQLPYICQFGIV
modifications: Forms a homotrimer through the tetranectin coiled coil; one protomer is given.
notes: also called 001-87.A4A
B10: B9B ATRIMER (designed binder)
chain: B1 chain with G116A, S117P, R119D, T120L, D121G, T122L, F151W
modifications: Forms a homotrimer through the tetranectin coiled coil; one protomer is given.
notes: also called 056-41.B9B

target: T1, recombinant human IL-23R/Fc chimera …; test: competition ELISA against IL-23
Procedure: Assays were performed generally as follows. Individual wells in Immulon HB2 plates were incubated overnight at 4° C. with 100 μL PBS containing 100 ng of an anti-human IgG Fc (R&D MAB 110 clone 97924). Plates were washed five times with PBS/0.05% Tween 20, and wells were incubated for 1.5 h at RT with 100 μL each of PBS containing 50 ng of recombinant human IL-23R/Fc. […] Competitor was included at a final concentration of 1 μg/mL. After incubation, plates were washed as described and wells were incubated for 40 min at RT with 100 μL each of PBS containing a 1:5000 dilution of streptavidin-HRP conjugate (Pierce catalog no. 21130). After washing, wells were incubated with 100 μL each of TMB (BioFX Lab catalog no. TMBH-1000-0) for up to 30 min at RT. Reactions were stopped with an equal volume of 0.2 M sulfuric acid.

Ratio IC50 to 056-53.H4E IC50	Binder
1.1 ratio	B1
2 ratio	B2
1.4 ratio	B3
1.2 ratio	B4
2.8 ratio	B5
2.2 ratio	B6
11.3 ratio	B7

target: T1, recombinant human IL-23R/Fc chimera …; test: SPR (Biacore), captured IL-23R/Fc, ATRIMER
Procedure: A Biacore 3000 biosensor (GE Healthcare) was used to evaluate the interaction of human IL-23R and receptor binders. Immobilization of an anti-human IgG Fc antibody (GE Heathcare) to the CM5 chip (Biacore) was performed using standard amine coupling chemistry, and this modified surface was used to capture a recombinant human IL-23R/Fc fusion protein (R&D Systems). A low-density receptor surface, less than 200 RU, was used for all of the analyses. ATRIMER™ polypeptide complex dilutions (1-500 nM) were injected over the IL-23R surface at 30 μl/min and kinetic constants were derived from the sensorgram data using the Biaevaluation software (version 3.1, GE Healthcare). Data collection was 3 minutes for the association and 5 minutes for dissociation. The anti-human IgG surface was regenerated with a 30 s pulse of 3M magnesium chloride. All sensorgrams were double-referenced against an activated and blocked flow-cell as well as buffer injections.

Ka	Kd	koff	kon	Binder
1.2e+08 M⁻¹	8.34 nM	0.000483 s⁻¹	57900 M⁻¹ s⁻¹	B8
2.11e+09 M⁻¹	0.473 nM	0.000348 s⁻¹	735000 M⁻¹ s⁻¹	B1
9.62e+08 M⁻¹	1.04 nM	0.000283 s⁻¹	271000 M⁻¹ s⁻¹	B2
1.11e+09 M⁻¹	0.897 nM	0.000429 s⁻¹	479000 M⁻¹ s⁻¹	B3
1.24e+08 M⁻¹	8.08 nM	0.000409 s⁻¹	50600 M⁻¹ s⁻¹	B9
1.32e+09 M⁻¹	0.759 nM	0.000312 s⁻¹	412000 M⁻¹ s⁻¹	B4
1.94e+08 M⁻¹	5.15 nM	0.000478 s⁻¹	92800 M⁻¹ s⁻¹	B10
5.41e+08 M⁻¹	1.85 nM	0.000471 s⁻¹	254000 M⁻¹ s⁻¹	B5
1.05e+09 M⁻¹	0.955 nM	0.000329 s⁻¹	345000 M⁻¹ s⁻¹	B6
1.55e+08 M⁻¹	6.46 nM	0.000327 s⁻¹	50500 M⁻¹ s⁻¹	B7
